Assay results reported in patent US20080318246A1 (ALBERT EINSTEIN COLLEGE OF MEDICINE OF YESHIVA UNIVERSITY, published 2008).
Square brackets hold non-standard residues; d marks the D form. Carminic acid = quencher bound covalently; Ala(Pyr) = not defined here; Dap = NC[C@H](N)C(=O)O

Molecular target: T1, 14-3-3τ (UniProt P27348 1-245)
T1 sequence (looked up): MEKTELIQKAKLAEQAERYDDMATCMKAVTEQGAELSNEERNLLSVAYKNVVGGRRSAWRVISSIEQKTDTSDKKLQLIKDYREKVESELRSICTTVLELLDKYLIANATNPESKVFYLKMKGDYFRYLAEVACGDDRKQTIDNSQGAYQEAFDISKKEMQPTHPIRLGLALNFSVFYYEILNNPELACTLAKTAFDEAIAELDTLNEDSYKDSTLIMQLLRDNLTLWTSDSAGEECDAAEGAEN
Experiment: cell-based or functional assay

B1: P14, AcGAla(Pyr)TGRRDap(Carminic acid)SLPA-amide, serine-phosphorylated by PKA in the assay (peptide)
peptide: Ac-G[Ala(Pyr)]TGRR[Dap](Carminic acid)SLPA-NH2
modifications: reading uncertain; also: Ser phosphorylated by PKA in the assay
fold increase in fluorescence upon phosphorylation by PKA: 2.2 fold
